Test results as given in the supplement of paper PMC11316812.
± gives the standard deviation of the averaged measurements.

Experiments:
hTERT-HMEC = experiment: percentage of EdU-negative (G0-arrested) nuclei per well, 72 h; higher = more G0 arrest; settings: reference: sequence is the full UniProt precursor, the tested protein was the secreted form or ectodomain
MCF7 = experiment: as above; settings: reference: sequence is the full UniProt precursor, the tested protein was the secreted form or ectodomain
[1] = protein concentration 0.0225 µM
[2] = protein concentration 0.0357143 µM
[3] = protein concentration 0.357143 µM
[4] = protein concentration 0.0217075 µM
[5] = protein concentration 0.217075 µM
[6] = protein concentration 0.00825 µM
[7] = protein concentration 0.0825 µM
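Further: secreted proteins added to cultured cells, EdU pulse at the end, nuclei found by Hoechst imaging, EdU status from nuclear versus surrounding ring intensity ratio, PBS as neutral control.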

| Sequence | percentage of EdU-negative (hTERT-HMEC; [1]) | percentage of EdU-negative (hTERT-HMEC; protein concentration 0.225 µM) | percentage of EdU-negative (MCF7; [1]) | percentage of EdU-negative (MCF7; protein concentration 0.225 µM) | further results |
| --- | --- | --- | --- | --- | --- |
| MLSGRLVLGLVSMAGRVCLCQGSAGSGAIGPVEAAIRTKLEEALSPEVLELRNESGGHAVPPGSETHFRVAVVSSRFEGLSPLQRHRLVHAALAEELGGPVHALAIQARTPAQWRENSQLDTSPPCLGGNKKTLGTP [Q9Y3E2] | 5.42 ± 0.18% | 5.59 ± 0.52% | 28 ± 1.9% | 27.3 ± 2.5% |  |
| MLSSVVFWGLIALIGTSRGSYPFSHSMKPHLHPRLYHGCYGDIMTMKTSGATCDANSVMNCGIRGSEMFAEMDLRAIKPYQTLIKEVGQRHCVDPAVIAAIISRESHGGSVLQDGWDHRGLKFGLMQLDKQTYHPVGAWDSKEHLSQATGILTERIKAIQKKFPTWSVAQHLKGGLSAFKSGIEAIATPSDIDNDFVNDIIARAKFYKRQSF [Q86SG7] | 4.33 ± 0.76% | 5.09 ± 0.33% | 27.3 ± 1.4% | 25.6 ± 2.5% |  |
| MLTRLVLSAHLSSTTSPPWTHAAISWELDNVLMPSPRIWPQVTPTGRSASVRSEGNTSSLWNFSAGQDVHAIVTRTCESVLSSAVYTHGCGCVRSATNITCQSSGQQRQAARQEEENSICKAHDSREGRLGYPLSAHQPGSGGPN [Q8TAV5] | 5.652 ± 0.04% | 12.7 ± 0.25% | 24.95 ± 0.064% | 26 ± 2.6% |  |
| MLTTLLPILLLSGWAFCSQDASDGLQRLHMLQISYFRDPYHVWYQGNASLGGHLTHVLEGPDTNTTIIQLQPLQEPESWARTQSGLQSYLLQFHGLVRLVHQERTLAFPLTIRCFLGCELPPEGSRAHVFFEVAVNGSSFVSFRPERALWQADTQVTSGVVTFTLQQLNAYNRTRYELREFLEDTCVQYVQKHISAENTKGSQTSRSYTSLVLGVLVGSFIIAGVAVGIFLCTGGRRC [Q9UNN8] |  |  |  |  | percentage of EdU-negative (hTERT-HMEC; [2]): 4.92 ± 0.17%; percentage of EdU-negative (hTERT-HMEC; [3]): 6.22 ± 0.072%; percentage of EdU-negative (MCF7; [2]): 24.2 ± 1.7%; percentage of EdU-negative (MCF7; [3]): 25.3 ± 1.2% |
| MLVDGPSERPALCFLLLAVAMSFFGSALSIDETRAHLLLKEKMMRLGGRLVLNTKEELANERLMTLKIAEMKEAMRTLIFPPSMHFFQAKHLIERSQVFNILRMMPKGAALHLHDIGIVTMDWLVRNVTYRPHCHICFTPRGIMQFRFAHPTPRPSEKCSKWILLEDYRKRVQNVTEFDDSLLRNFTLVTQHPEVIYTNQNVVWSKFETIFFTISGLIHYAPVFRDYVFRSMQEFYEDNVLYMEIRARLLPVYELSGEHHDEEWSVKTYQEVAQKFVETHPEFIGIKIIYSDHRSKDVAVIAESIRMAMGLRIKFPTVVAGFDLVGHEDTGHSLHDYKEALMIPAKDGVKLPYFFHAGETDWQGTSIDRNILDALMLNTTRIGHGFALSKHPAVRTYSWKKDIPIEVCPISNQVLKLVSDLRNHPVATLMATGHPMVISSDDPAMFGAKGLSYDFYEVFMGIGGMKADLRTLKQLAMNSIKYSTLLESEKNTFMEIWKKRWDKFIADVATK [Q9NZK5] |  |  |  |  | percentage of EdU-negative (hTERT-HMEC; [4]): 4.31 ± 0.15%; percentage of EdU-negative (hTERT-HMEC; [5]): 7.86 ± 0.091%; percentage of EdU-negative (MCF7; [4]): 24.5 ± 1.2%; percentage of EdU-negative (MCF7; [5]): 28.4 ± 1.5% |
| MLVGQGAGPLGPAVVTAAVVLLLSGVGPAHGSEDIVVGCGGFVKSDVEINYSLIEIKLYTKHGTLKYQTDCAPNNGYFMIPLYDKGDFILKIEPPLGWSFEPTTVELHVDGVSDICTKGGDINFVFTGFSVNGKVLSKGQPLGPAGVQVSLRNTGTEAKIQSTVTQPGGKFAFFKVLPGDYEILATHPTWALKEASTTVRVTNSNANAASPLIVAGYNVSGSVRSDGEPMKGVKFLLFSSLVTKEDVLGCNVSPVPGFQPQDESLVYLCYTVSREDGSFSFYSLPSGGYTVIPFYRGERITFDVAPSRLDFTVEHDSLKIEPVFHVMGFSVTGRVLNGPEGDGVPEAVVTLNNQIKVKTKADGSFRLENITTGTYTIHAQKEHLYFETVTIKIAPNTPQLADIIATGFSVCGQISIIRFPDTVKQMNKYKVVLSSQDKDKSLVTVETDAHGSFCFKAKPGTYKVQVMVPEAETRAGLTLKPQTFPLTVTNRPMMDVAFVQFLASVSGKVSCLDTCGDLLVTLQSLSRQGEKRSLQLSGKVNAMTFTFDNVLPGKYKISIMHEDWCWKNKSLEVEVLEDDMSAVEFRQTGYMLRCSLSHAITLEFYQDGNGRENVGIYNLSKGVNRFCLSKPGVYKVTPRSCHRFEQAFYTYDTSSPSILTLTAIRHHVLGTITTDKMMDVTVTIKSSIDSEPALVLGPLKSVQELRREQQLAEIEARRQEREKNGNEEGEERMTKPPVQEMVDELQGPFSYDFSYWARSGEKITVTPSSKELLFYPPSMEAVVSGESCPGKLIEIHGKAGLFLEGQIHPELEGVEIVISEKGASSPLITVFTDDKGAYSVGPLHSDLEYTVTSQKEGYVLTAVEGTIGDFKAYALAGVSFEIKAEDDQPLPGVLLSLSGGLFRSNLLTQDNGILTFSNLSPGQYYFKPMMKEFRFEPSSQMIEVQEGQNLKITITGYRTAYSCYGTVSSLNGEPEQGVAMEAVGQNDCSIYGEDTVTDEEGKFRLRGLLPGCVYHVQLKAEGNDHIERALPHHRVIEVGNNDIDDVNIIVFRQINQFDLSGNVITSSEYLPTLWVKLYKSENLDNPIQTVSLGQSLFFHFPPLLRDGENYVVLLDSTLPRSQYDYILPQVSFTAVGYHKHITLIFNPTRKLPEQDIAQGSYIALPLTLLVLLAGYNHDKLIPLLLQLTSRLQGVRALGQAASDNSGPEDAKRQAKKQKTRRT |  |  |  |  | percentage of EdU-negative (hTERT-HMEC; [6]): 5.23 ± 0.14%; percentage of EdU-negative (hTERT-HMEC; [7]): 7.14 ± 1.1%; percentage of EdU-negative (MCF7; [6]): 22.7 ± 1.3%; percentage of EdU-negative (MCF7; [7]): 26.29 ± 0.074% |
